Data on five sequences can be found in the supplement of paper PMC5998384.

Data set [1] relates to HeLa Kyoto. Briefly: melting temperature (median over replicates), in situ; higher = more thermally stable.
Data set [2] concerns HeLa Kyoto. Briefly: solubility change mitosis vs G1/S (difference of NP-40 vs SDS log2 ratios) (log2 ratio difference); higher = more soluble in mitosis.
In data set [3] the test system is HeLa Kyoto. As to the kind of experiment: thermal stability score vs G1/S (z-score of summed log2 fold changes over temperatures); higher = more thermally stable than in G1/S.
The test system of data set [4] is HeLa Kyoto. Briefly: solubility in G1/S (NP-40 vs SDS abundance) (log2 ratio); higher = more soluble. The settings on record: cell cycle stage: G1/S.
Setting [5] is: cell cycle stage: early G1 (4.5 h after nocodazole release).
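For melting temperature (median over replicates), in situ in this document: HeLa Kyoto cells synchronized by double thymidine or nocodazole block, proteins quantified by TMT10plex mass spectrometry, three independent biological replicates.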
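For solubility change mitosis vs G1/S (difference of NP-40 vs SDS log2 ratios) in this document: synchronized HeLa Kyoto cells (double thymidine block for G1/S, nocodazole release for mitosis), protein amounts in NP-40 versus SDS lysates quantified by mass spectrometry, three biological replicates.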
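For solubility in G1/S (NP-40 vs SDS abundance) in this document: HeLa Kyoto cells arrested at G1/S by double thymidine block, proteins quantified by TMT10plex mass spectrometry in mild NP-40 versus SDS extracts, three biological replicates.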
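For thermal stability score vs G1/S (z-score of summed log2 fold changes over temperatures) in this document: synchronized HeLa Kyoto cells, proteins quantified by TMT10plex mass spectrometry, three biological replicates, mitosis taken 0.5 h after nocodazole release, G1/S directly after double thymidine block.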

For the sequence “MSESGHSQPGLYGIERRRRWKEPGSGGPQNLSGPGGRERDYIAPWERERRDASEETSTSVMQKTPIILSKPPAERSKQPPPPTAPAAPPAPAPLEKPIVLMKPREEGKGPVAVTGASTPEGTAPPPPAAPAPPKGEKEGQRPTQPVYQIQNRGMGTAAPAAMDPVVGQAKLLPPERMKHSIKLVDDQMNWCDSAIEYLLDQTDVLVVGVLGLQGTGKSMVMSLLSANTPEEDQRTYVFRAQSAEMKERGGNQTSGIDFFITQERIVFLDTQPILSPSILDHLINNDRKLPPEYNLPHTYVEMQSLQIAAFLFTVCHVVIVVQDWFTDLSLYRFLQTAEMVKPSTPSPSHESSSSSGSDEGTEYYPHLVFLQNKARREDFCPRKLRQMHLMIDQLMAHSHLRYKGTLSMLQCNVFPGLPPDFLDSEVNLFLVPFMDSEAESENPPRAGPGSSPLFSLLPGYRGHPSFQSLVSKLRSQVMSMARPQLSHTILTEKNWFHYAARIWDGVRKSSALAEYSRLLA [SMG9]”, the melting temperature in data set [1] (cell cycle stage: G1/S) amounted to 49 °C; in data set [1] (cell cycle stage: mitosis) it was 49.8 °C. Further, the “solubility change mitosis (log2)” value in data set [2] was -0.178. Also, the results for the thermal stability score in data set [3] (setting [5]) and in data set [3] (cell cycle stage: mitosis) were -0.759 and -0.639, respectively. Besides, in data set [4], the “solubility in G1/S (log2)” value was 0.242.
In the case of “MSESLVVCDVAEDLVEKLRKFRFRKETNNAAIIMKIDKDKRLVVLDEELEGISPDELKDELPERQPRFIVYSYKYQHDDGRVSYPLCFIFSSPVGCKPEQQMMYAGSKNKLVQTAELTKVFEIRNTEDLTEEWLREKLGFFH [GMFB]”, the melting temperature in data set [1] (cell cycle stage: G1/S) is 55.4 °C; in data set [1] (cell cycle stage: mitosis) it was 55.6 °C. Moreover, in data set [2], the “solubility change mitosis (log2)” value is 0.123. Further, the thermal stability score is -2.8 in data set [3] (setting [5]) and -3.58 in data set [3] (cell cycle stage: mitosis). Moreover, in data set [4], the “solubility in G1/S (log2)” value stood at 0.3.
For the sequence “MSETVICSSRATVMLYDDGNKRWLPAGTGPQAFSRVQIYHNPTANSFRVVGRKMQPDQQVVINCAIVRGVKYNQATPNFHQWRDARQVWGLNFGSKEDAAQFAAGMASALEALEGGGPPPPPALPTWSVPNGPSPEEVEQQKRQQPGPSEHIERRVSNAGGPPAPPAGGPPPPPGPPPPPGPPPPPGLPPSGVPAAAHGAGGGPPPAPPLPAAQGPGGGGAGAPGLAAAIAGAKLRKVSKQEEASGGPTAPKAESGRSGGGGLMEEMNAMLARRRKATQVGEKTPKDESANQEEPEARVPAQSESVRRPWEKNSTTLPRMKSSSSVTTSETQPCTPSSSDYSDLQRVKQELLEEVKKELQKVKEEIIEAFVQELRKRGSP [VASP]”, the melting temperature in data set [1] (cell cycle stage: G1/S) is 49.7 °C; in data set [1] (cell cycle stage: mitosis) it was 50.4 °C. The “solubility change mitosis (log2)” value in data set [2] came to 0.0947. The results for the thermal stability score in data set [3] (setting [5]) and in data set [3] (cell cycle stage: mitosis) were 0.605 and 2.18, respectively. Besides, the “solubility in G1/S (log2)” value in data set [4] was determined as 0.466.
In the case of “MSEVTKNSLEKILPQLKCHFTWNLFKEDSVSRDLEDRVCNQIEFLNTEFKATMYNLLAYIKHLDGNNEAALECLRQAEELIQQEHADQAEIRSLVTWGNYAWVYYHLGRLSDAQIYVDKVKQTCKKFSNPYSIEYSELDCEEGWTQLKCGRNERAKVCFEKALEEKPNNPEFSSGLAIAMYHLDNHPEKQFSTDVLKQAIELSPDNQYVKVLLGLKLQKMNKEAEGEQFVEEALEKSPCQTDVLRSAAKFYRRKGDLDKAIELFQRVLESTPNNGYLYHQIGCCYKAKVRQMQNTGESEASGNKEMIEALKQYAMDYSNKALEKGLNPLNAYSDLAEFLETECYQTPFNKEVPDAEKQQSHQRYCNLQKYNGKSEDTAVQHGLEGLSISKKSTDKEEIKDQPQNVSENLLPQNAPNYWYLQGLIHKQNGDLLQAAKCYEKELGRLLRDAPSGIGSIFLSASELEDGSEEMGQGAVSSSPRELLSNSEQLN [IFIT3]”, the results for the melting temperature in data set [1] (cell cycle stage: G1/S) and in data set [1] (cell cycle stage: mitosis) were 48.2 °C and 49 °C, respectively. Besides, the “solubility change mitosis (log2)” value in data set [2] is -0.0471. The results for the thermal stability score in data set [3] (setting [5]) and in data set [3] (cell cycle stage: mitosis) were -0.282 and 1.1, respectively. For the same sequence, in data set [4], the “solubility in G1/S (log2)” value amounted to 0.357.
As to “MSEVTRSLLQRWGASFRRGADFDSWGQLVEAIDEYQILARHLQKEAQAQHNNSEFTEEQKKTIGKIATCLELRSAALQSTQSQEEFKLEDLKKLEPILKNILTYNKEFPFDVQPVPLRRILAPGEEENLEFEEDEEEGGAGAGSPDSFPARVPGTLLPRLPSEPGMTLLTIRIEKIGLKDAGQCIDPYITVSVKDLNGIDLTPVQDTPVASRKEDTYVHFNVDIELQKHVEKLTKGAAIFFEFKHYKPKKRFTSTKCFAFMEMDEIKPGPIVIELYKKPTDFKRKKLQLLTKKPLYLHLHQTLHKE [AIDA]”, the melting temperature in data set [1] (cell cycle stage: G1/S) was found to be 50.9 °C; in data set [1] (cell cycle stage: mitosis), 50.5 °C. Further, in data set [2], the “solubility change mitosis (log2)” value came to 0.0508. Besides, the thermal stability score in data set [3] (setting [5]) was -0.484; in data set [3] (cell cycle stage: mitosis), -0.48. Moreover, in data set [4], the “solubility in G1/S (log2)” value amounted to 0.32.
